Test results published in the supplement of paper PMC12764529.
± gives the half width of the 95% confidence interval.

Columns and labels:
[1] = folding stability dG unfold from chymotrypsin proteolysis; higher = more stable
Procedure, shortened: (§1)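 Unfolding free energy was derived, per protease or combined, by relating Bayesian-fitted K50 values from sequencing counts to a sequence-predicted unfolded-state K50 and a shared folded-state K50. The underlying digests exposed cysteine-free mini-proteins under 80 residues, in a PA-tagged cDNA display construct, to trypsin and chymotrypsin at 11 threefold-diluted concentrations and to a no-protease condition. A filter kept only designs with AlphaFold2 dimer inter-PAE above 15.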

[2] = folding stability dG unfold from trypsin proteolysis; higher = more stable
Procedure, shortened: as §1

[3] = folding stability dG unfold (combined trypsin and chymotrypsin); higher = more stable
Procedure, shortened: as §1

| Sequence | folding stability dG unfold [1] [kcal/mol] | folding stability dG unfold [2] [kcal/mol] | folding stability dG unfold [3] [kcal/mol] |
| --- | --- | --- | --- |
| SAGGSAGGSDTVNVKVTVSFPPGTETKEITVNVPVVPGNPDVVKAKVDELAAAFPDAVVTAEKSAGGSAGGS [r12_795_TrMRF] | 1.99 ± 0.095 | 0.294 ± 0.078 | 1.6 ± 0.12 |
| SAGGMMTLKITIVDEDGNEITIEVEMSIEELEELIKELFPGKKVKVVSVEEEPVEPGLVKVTIKIEKESAGG [r13_832_TrROS_Hall] | 5.01 ± 0.16 | 3.6 ± 0.12 | 4.96 ± 0.33 |
| SAGGSAGGSAGDSPSTPVLVTETFTFPVTVTAPNEGGYSTTTSTVTVTVTLEVYVSPSFPSAGGSAGGSAGG [r17_186_JUSTAS] | 2.92 ± 0.04 | 2.2 ± 0.053 | 2.62 ± 0.061 |
| SPPGLRIRIESPDNGEPIPFPIPPNVEVDVKRDKNGNFIATIKIQNPENGKKWTIEIDAPMRIVEIEPVPSA [r9_467_TrROS] | 3.35 ± 0.16 | 1.6 ± 0.076 | 2.76 ± 0.21 |
| GYRPALAVVELGPNSRLLLRPPEGPSVEIEVESPEEALAAALKLLPKDQPLVLEVFDEGKLIETIPIEIPPS [r1_276_TrMRF] | 1.87 ± 0.069 | 0.973 ± 0.036 | 1.55 ± 0.095 |
| SAGGKNLKPIGTVTLTNPKGEKVEIVEFEGPVFVVLTPKDGSKKIVSAEGKSLEEILKELEKEGYEVEPSAG [r5_613_TrMRF] | 2.15 ± 0.081 | 1.22 ± 0.061 | 1.76 ± 0.15 |
| SAGGSAGGSAEKKTITVVVKVDENGKEKTPEELAKELEKAGFKVTKVTWDEENNYVTVTIEASAGGSAGGSA [r18_466_TrROS_Hall] | 1.11 ± 0.049 | 1.72 ± 0.088 | 1.4 ± 0.18 |
| SAGGKTVTITVPEGMTEEEVKALAEKLIEEGFKEVTVTVTRTKTETLPNGKTKTVTETKTYVFKLPPSAGGS [r16_44_TrROS_Hall] | 4.062 ± 0.036 | 3.45 ± 0.092 | 3.88 ± 0.088 |
| SAGGSAKIKITIEYDEETGEVRIKIEVDGKEYEITLSREELANMTIEELAKKLGVEIEEVEIYPVPSAGGSA [r15_801_TrROS_Hall] | 2.92 ± 0.28 | 3.35 ± 0.24 | 3.35 ± 0.3 |
| SAGGSAGGSAIKEIVKRIEKLFGVDVEPEQEEREVNGGRYPTLPVTVKVPPNANSPALKEASAGGSAGGSAG [r3_427_TrROS] | 0.636 ± 0.093 | -0.555 ± 0.4 | 0.021 ± 0.24 |
| SAGGSAGGSAGGYSAIIIFPTEFDNKLYYAAVELESPSEELHEGDIKSVILAPLNTPILSAGGSAGGSAGGS [r10_730_TrMRF] | 1.41 ± 0.043 | 1.93 ± 0.096 | 1.64 ± 0.046 |
| SAGGSAGGSAGGMFLIKLPNGKVLLFESEEEAKAALEELTGKPVDLENLEIVPLPEEELSAGGSAGGSAGGS [r10_62_TrROS_Hall] | 3.14 ± 0.045 | 3.65 ± 0.14 | 3.3 ± 0.11 |
| SAGGSAGGSAGGMMKTTITITLPPNSSKEEAEKIKEEGLPAEEIVVEKNPDGTRVVTILESAGGSAGGSAGG [r11_97_JUSTAS] | 0.657 ± 0.051 | -0.915 ± 0.31 | 0.237 ± 0.15 |
| SAGGSAGGSMVEGELPDAKVTVFFHPDGGALALVEFETETVLARIDVLPDDTLKITVIPAKDASAGGSAGGS [r12_669_TrMRF] | 2.252 ± 0.01 | 2.05 ± 0.05 | 2.16 ± 0.072 |
| SAGGSAGGSAIPKAPVTVTVTTADGRPALATVEYYPDGVLVTVHYGDKTVTAWVAPADISASAGGSAGGSAG [r3_373_TrMRF] | 2.19 ± 0.11 | 0.864 ± 0.053 | 1.54 ± 0.17 |
| SAGGSAGGSPKIKEVKYIPPTGKIEVLIELPNGKPIKVTFDPKIKVNPVFYNGKPIFYFTGNPSAGGSAGGS [r12_789_TrMRF] | 1.21 ± 0.073 | 0.925 ± 0.015 | 1.19 ± 0.076 |
| SAGGSAGGSAGQTLLVEVNGQLAEITIDPDVPGQITITLPNGEQITLEVRLEPPPPPEEESAGGSAGGSAGG [r17_85_TrROS_Hall] | 1.39 ± 0.17 | 2.08 ± 0.3 | 1.6 ± 0.16 |
| SAGPPEFELVGEFEAEAPGGVPVRVRVIRLPGGDVLVVVTHPDDTVTLGFIPAETGEWHLALSFPADVLSAG [r5_750_TrMRF] | 2.369 ± 0.014 | 2.82 ± 0.057 | 2.58 ± 0.057 |
| SAGGSAGGSTPTEFAKNLNVTEVKYDPVKKTVRVIHEFEDYLVLVEYDPSTGEVRVEVFSKDESAGGSAGGS [r12_214_TrMRF] | 2.05 ± 0.12 | 1.4 ± 0.12 | 1.84 ± 0.24 |
| SAGGSAGMPSPVLLDVTIANPDGTTSTVTAPYASPEVAEAYVRENYPDAEVTYDPATGRVSVNVPSSAGGSA [r15_313_JUSTAS] | 2.09 ± 0.033 | 2.31 ± 0.092 | 2.2 ± 0.054 |
| SAGGSAGGSAGGMATTTTKIEIYPGTGKVKTTTTVTDPSTGTTTTTTTTEETSLEELTSSAGGSAGGSAGGS [r10_173_JUSTAS] | 0.657 ± 0.082 | -0.0031 ± 0.05 | 0.345 ± 0.13 |

| Sequence | folding stability dG unfold [1] [kcal/mol] | folding stability dG unfold [2] [kcal/mol] | folding stability dG unfold [3] [kcal/mol] |
| --- | --- | --- | --- |
| SAGMPKPLVLPVVLPDDGATVEVVFDPVEKRIEIRVFKPGHRERAREFAEGIAALFEELGYEVEITDDSAGG [r19_354_TrMRF] | 1.27 ± 0.091 | 2.3 ± 0.084 | 1.91 ± 0.12 |
| SSVEELSPEQRREQLRELLRQIREARREGDPEEERRLLEELRRLIEQLPDEEREEVRRLLEELGLPVEELSA [r9_182_TrROS_Hall] | 3.72 ± 0.19 | 4.27 ± 0.21 | 4.05 ± 0.19 |
| SAGGMSPEELASLSPEERRAVVEEALRERLARERPGAPPDFALEDVPVTVRDPATGTTTTVTVRLEAASAGG [r13_555_JUSTAS] | 0.109 ± 0.14 | 0.384 ± 0.11 | 0.177 ± 0.16 |
| SAGKPNIVVHPEYEQEKDPGDPGQPRIREMRVRVYLPNGRPITFRYRSPEDAVDRLLKRIQENPDLLKSAGG [r19_123_TrROS] | 2.11 ± 0.13 | 1.79 ± 0.12 | 2.07 ± 0.19 |
| SAGGSAGGSAGGSEEKLKKMKPKKVATYKVKTVTYKKTKDGTWEPTKVEEVEITVYALPSAGGSAGGSAGGS [r4_288_TrROS_Hall] | 4.04 ± 0.072 | 2.44 ± 0.07 | 3.28 ± 0.3 |
| SMTLTIEVDPNDPAKVKALIDSTPPDTTVTLVFPQEDGSKPVKTITVKPPLEKPISPENMTPKNVAARKKSA [r9_1103_JUSTAS] | 0.481 ± 0.099 | -0.782 ± 0.69 | 0.118 ± 0.18 |
| SAGGSALKIHPDEKVLVKLKNTKKPVEAKVVKVEKLPNNKWVFYVEVKLNGKKVKIPVDGKDVVVASAGGSA [r15_62_TrMRF] | 2.38 ± 0.07 | 2.55 ± 0.2 | 2.45 ± 0.23 |
| SAGGSAMKITYKPPSGETTVHPIPPGLTPEERRALAEELAKALQEKTGDPNVTVEFDPATGEITVASAGGSA [r15_33_JUSTAS] | -0.0618 ± 0.15 | 1.33 ± 0.034 | 0.84 ± 0.11 |
| SAMKTETITVPGLKIEVTENKDGKKTIKITAATPEQAEEWLKKNPELRKLIEELEKAGYKVEITVLPPPSAG [r14_873_TrROS_Hall] | 2.83 ± 0.051 | 3.4 ± 0.17 | 3.01 ± 0.049 |
| SAGGSAETIEIEIKVKTEEEREKLKEALKKIPSIKEVKELPDGTIKITVSKENLDKIKEALKKAGVSAGGSA [r15_834_TrROS_Hall] | 2.25 ± 0.24 | 3.37 ± 0.34 | 3.31 ± 0.65 |
| SAGGSAGGSVITLPNGVKLVTVKVSRPELDETETVTVPLEGMTLEEIKERLKKEGYKEVVFLESAGGSAGGS [r12_792_JUSTAS] | 1.28 ± 0.036 | 1.19 ± 0.032 | 1.26 ± 0.077 |
| SAGGSAGGSAGGSGMVEVVSPDLSPEELKERIRKELGDPSVKVEVTTLSDGTQLARVPASAGGSAGGSAGGS [r4_408_JUSTAS] | -0.0859 ± 0.061 | -1.74 ± 0.72 | -0.365 ± 0.12 |
| SAGTTSVVSTETTEFPDGTVTTTTTVLYLEPEGDGYVKVSETRVTTTYTIDPATGTVVTSTTTTTPLAGSAG [r5_828_JUSTAS] | 2.17 ± 0.063 | 1.79 ± 0.063 | 1.99 ± 0.098 |
| SAGGGMEPKPVEVTLTIPKGTVTPEDKVPVSTIAKLLGIPEDTEVTVEKITPVPNSDTELVTLTIVTSAGGS [r16_165_JUSTAS] | 0.571 ± 0.074 | 0.412 ± 0.023 | 0.615 ± 0.12 |
| SAGGSAGGSAGGMKKKIPNKTLTIEIEVKLENGLYLKMKITVNKNGEIKIEIEVIPKEDLSAGGSAGGSAGG [r7_214_TrROS_Hall] | 3.33 ± 0.073 | 2.57 ± 0.12 | 3.08 ± 0.14 |
| SAGGMIPPEELAARAEAVREAAPASGEVVRTTVVLPSPGLVTRVDLVYEPGAGRITVESVSEVPPELLSAGG [r13_37_JUSTAS] | 0.414 ± 0.032 | 0.496 ± 0.027 | 0.461 ± 0.046 |
| SAGGSAGGSASITFMLMKFDPEDNRVEVYTYKIKIERDPNGLKKFKIEPVKRQRINPDDLKAISAGGSAGGS [r12_374_TrROS] | 3.48 ± 0.09 | 2.13 ± 0.12 | 2.98 ± 0.25 |
| SAGGSAGGSAGGMTVRITTPDGRVIEIPAKDLSPEQLAALKEAGFEVVSVEPGRVTIRLKSAGGSAGGSAGG [r7_496_TrROS_Hall] | 1.92 ± 0.036 | 0.865 ± 0.1 | 1.49 ± 0.13 |
| SAGGSAGGMIIRVEFKNGEVKTFVVKSPEEAKKKLAESLGLKEDEIPLDEIKSVEILNLDEALSSAGGSAGG [r6_586_TrMRF] | 4.1 ± 0.073 | 3.35 ± 0.1 | 3.91 ± 0.073 |
| SAGGSAGGSAGSFTVLVTEVLDPDDPLYLKLQKELGLPPENIVRFKLYTFSSPEEVKKKISAGGSAGGSAGG [r11_83_TrMRF] | 1.99 ± 0.13 | 0.923 ± 0.035 | 1.5 ± 0.065 |
| SAGGSAGGSFRIDPEKIEKVKHHRNPNGGGYHTIRLPGGPVKIPFRGMDPGDMEDQVKNFLKNSAGGSAGGS [r12_585_TrROS] | 0.267 ± 0.19 | 0.161 ± 0.11 | 0.236 ± 0.14 |
